The target in series [1] is Hemagglutinin on intact virus A/Port Chalmers/1/73 (H3N2) (Influenza A virus) (UniProt P03438+P03438). The series is described as follows: cell_activity.
The target in series [2] is Influenza hemagglutinin fragment HA91-261 (globular region) (Influenza A virus (A/Port …, UniProt Q1PUD9 SEQ:1-171)). The series is described as follows: ELISA. To be noted: tags: N-terminal 6xHis (pQE30, E. coli, Ni-NTA purified). On the technique in general: ELISA stands for enzyme-linked immunosorbent assay.

The source of these data is patent publication US20070059806, “Nucleic acid molecules, polypeptides, antibodies and compositions containing same useful for treating and detecting influenza virus infection” (Yeda Research and Development Co., Ltd. at the Weizmann …, published 2007).

Sequence of Influenza hemagglutinin fragment HA91-261 (globular region) (Influenza A virus (Q1PUD9 107-277): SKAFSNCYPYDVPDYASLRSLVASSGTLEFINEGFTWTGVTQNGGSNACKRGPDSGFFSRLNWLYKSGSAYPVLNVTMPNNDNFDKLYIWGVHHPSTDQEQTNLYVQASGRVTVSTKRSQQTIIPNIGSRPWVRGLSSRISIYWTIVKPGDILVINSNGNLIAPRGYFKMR

“AATTAACCCTCACTAAAGGGCTGAGTCTCAAAACCGCAATACACTGGTTGTATGGTCGAATAAGTTAA [A22]” returned an activity in series [1] of 70%.

B1: A21 (ssDNA)
DNA: AATTAACCCTCACTAAAGGGCGCTTATTTGTTCAGGTTGGTCTTCCTATTATGGTCGAATAAGTTAA
Turning to B1, the binding result in series [2] is listed as “binds”.

B2: A22 (ssDNA)
DNA: AATTAACCCTCACTAAAGGGCTGAGTCTCAAAACCGCAATACACTGGTTGTATGGTCGAATAAGTTAA
With B2, the binding result in series [2] was “binds”.

AATTAACCCTCACTAAAGGG (ssDNA) [T3 primer negative control]: the binding result in series [2] (label: biotin) is reported as “no binding”.
